The values that follow come from US12564609B2, “Hematopoietic stem cell engraftment with a combination of agents” (The Board of Trustees of the Leland Stanford Junior …, priority 2020, dated 2026).

One series relates to HSC. The conditions noted are these: non-human primates; cited from earlier work.
Another series has as its system human MDS HSC. The conditions noted are these: MDS-xenografted mice; cited from earlier work.
The next series concerns the target T1, CD117 (Homo sapiens, UniProt P10721).
T1 construct: JSP191, used as single agent conditioning prior to allogeneic HCT in children with SCID; endogenous in cells; host or cells: hematopoietic stem and progenitor cells of human SCID patients (in vivo, clinical trial)
The conditions noted are these: children with SCID, single agent conditioning prior to allogeneic HCT; cited from earlier work.

Series [1] deals with hematopoietic stem and progenitor cells. Nature of the series: In vivo HSC depletion by anti-CD117 mAb in combination with AZA. Set-up: species or system C57BL/6 mice. The conditions noted are these: 1 μg exogenous murine SCF for 5 days in mice treated with ACK2 and AZA, day 11. The protocol:
A. Schematic of treatment protocol. C57BL/6 mice were injected retroorbital with single dose of ACK2 500 μg 5 days prior start treatment with AZA. AZA was administered in dose 5 mg/kg/d daily for 5 days. Mice were sacrificed 6, 10, 17 and 20 days after first dose of AZA and bone marrow (BM) and spleens were harvested and analyzed for HSC-depletion and depletion of mature myeloid and lymphoid cells. […] Magnification 100 μm. C. Absolute numbers of the different HSPC compartments in the BM and spleen of untreated controls and mice treated with ACK2 in combination with AZA at 6, 10, 17 20 days after start AZA as measured by flow cytometry; Lin^−Sca1^+c-Kit^+(LSK)CD150+CD48^− (LT-HSC), LSKCD150^−CD48^− (ST-HSC), LSKCD150^+CD48^+ (MPP2), LSKCD150^−CD48^+ (MPP3/4). Data represent mean±SD (n=3-4 per group per timepoint). Statistics were calculated Mann-Whitney test (*P<0.05). […] ACK2 and 2B8 were administered as a single dose of 500 μg retroorbital 5 days prior treatment with AZA; AZA was given at dose 5 mg/kg/d for 5 days. BM was analyzed at d6, d10 and d20 after the start of AZA. […] Statistics were calculated by Kruskal-Wallis test (*P<0.05, ***P<0.001). […] Mice were sacrificed at day 11 after first dose of AZA and BM and spleen were analyzed for HSC-depletion. […] Statistics were calculated by Mann-Whitney test (*P<0.05, ns=non-significant). […]

T1 sequence (P10721 26-976): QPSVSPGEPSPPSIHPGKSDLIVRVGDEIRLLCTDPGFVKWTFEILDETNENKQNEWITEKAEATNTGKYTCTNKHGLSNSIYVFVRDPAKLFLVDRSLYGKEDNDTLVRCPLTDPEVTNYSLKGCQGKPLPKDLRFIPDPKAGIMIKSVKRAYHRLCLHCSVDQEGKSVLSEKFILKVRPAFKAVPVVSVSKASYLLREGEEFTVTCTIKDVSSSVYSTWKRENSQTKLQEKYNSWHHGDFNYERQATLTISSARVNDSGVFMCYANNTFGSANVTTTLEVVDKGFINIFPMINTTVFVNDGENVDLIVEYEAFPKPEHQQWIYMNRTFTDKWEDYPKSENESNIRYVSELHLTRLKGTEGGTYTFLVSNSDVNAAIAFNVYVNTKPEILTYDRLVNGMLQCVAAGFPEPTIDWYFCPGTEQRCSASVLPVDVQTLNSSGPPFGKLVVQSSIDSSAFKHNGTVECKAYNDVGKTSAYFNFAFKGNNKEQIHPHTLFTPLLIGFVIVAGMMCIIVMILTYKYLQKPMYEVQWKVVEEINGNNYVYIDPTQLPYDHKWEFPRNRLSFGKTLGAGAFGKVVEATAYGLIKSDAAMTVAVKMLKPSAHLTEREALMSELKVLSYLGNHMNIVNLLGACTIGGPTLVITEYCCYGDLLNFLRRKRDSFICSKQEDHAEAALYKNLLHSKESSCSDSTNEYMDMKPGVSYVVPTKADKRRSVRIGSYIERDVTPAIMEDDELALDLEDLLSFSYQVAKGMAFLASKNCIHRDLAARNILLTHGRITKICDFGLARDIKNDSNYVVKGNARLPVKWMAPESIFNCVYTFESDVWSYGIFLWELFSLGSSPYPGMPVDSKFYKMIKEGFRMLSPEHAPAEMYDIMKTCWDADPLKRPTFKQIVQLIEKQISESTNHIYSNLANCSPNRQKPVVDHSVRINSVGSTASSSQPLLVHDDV

B1: JSP191: anti-human CD117 mAb, humanized form of SR1, aglycosylated IgG1 (antibody, chains of the INN, looked up, V domains shown)
VH: QVQLVQSGAEVKKPGASVKVSCKASGYTFTSYNMHWVRQAPGQGLEWMGVIYSGNGDTSYNQKFKGRVTITADKSTSTAYMELSSLRSEDTAVYYCARERDTRFGNWGQGTLVTVSS
VL: DIVMTQSPDSLAVSLGERATINCRASESVDIYGNSFMHWYQQKPGQPPKLLIYLASNLESGVPDRFSGSGSGTDFTLTISSLQAEDVAVYYCQQNNEDPYTFGGGTKVEIK
For B1, the “HSC elimination and off-target toxicity” value in the series with HSC is “can eliminate HSC with little to no off-target toxicity”. Moreover, in the series with human MDS HSC, the “depletion of human MDS HSC” value is recorded as “depletes human MDS HSC”. In the series with CD117, the “long-term HSC engraftment” value was “all showed evidence of long-term HSC engraftment” and the tolerability result is reported as “tolerated JSP191 well, without safety issues”.

B2: SCF: recombinant murine stem cell factor (PeproTech), ligand of CD117 (protein, UniProt P20826 26-190, looked up)
Soluble KIT ligand: KEICGNPVTDNVKDITKLVANLPNDYMITLNYVAGMDVLPSHCWLRDMVIQLSLSLTTLLDKFSNISEGLSNYSIIDKLGKIVDDLVLCMEENAPKNIKESPKRPETRSFTPEEFFSIFNRSIDAFKDFMVASDTSDCVLSSTLGPEKDSRVSVTKPFMLPPVAA
Regarding B2, in series [1], the “ST-HSC, MPP2 and MPP3/4 in the bone marrow” value is given as “no changes”; the “recovery of LT-HSC in the bone marrow” value was “faster recovery of LT-HSC”.
